{"source": "patent US11312760", "about": "(NEWSOARA BIOPHARMA, dated 2022)", "binders": {"B1": {"name": "Antibody 37G2 (recombinantly expressed in IgG1 form) (antibody, V domains shown)", "VH": "QVQLVQSGAEVKKPGSSVKVSCKASGGTFSSYAITWVRQAPGQGLEWMGGIIPIFGTANFAQKFQGRVTITADESTSTAYMELSSLRSEDTAVYYCAHLGGFADPFDYWGQGTLVTVSS", "VL": "EIVLTQSPATLSLSPGERATLSCRASQSVSNYLAWYQQKAGQAPRVLIYDAFNRATGIPARFSGSGSGTDFTLTISSLEPEDFAVYYCQQRSNWPPRITFGQGTRLEIK"}, "B2": {"name": "Antibody 31C2 (recombinantly expressed in IgG1 form) (antibody, V domains shown)", "VH": "QVQLVQSGAEVKKPGSSVKVSCKASGGTFSSYAISWVRQAPGQGLEWMGGIIPIFGTTNYAQKFQGRVTITADESTSTAYMELNSLRSEDTAVYYCAGRSAYGDKGYYFDYWGQGTLVTVSS", "VL": "B1 VL with Y32F, A40P, V46L, F52S, E79Q, R97Q, I98E, R105K, L106V"}, "B3": {"name": "Antibody 15A7 (recombinantly expressed in IgG1 form) (antibody, V domains shown)", "VH": "QVQLVQSGAEVKKPGASVKVSCKASGYTFTSYDINWVRQASGQGLEWMGWMNPNSANPGYAQKFQGRVTMTRNTSISTAFMELSSLRSDDTAVYYCARARVTIHYDILTGYYSNAFDIWGQGTMVAVSS", "VL": "DIQMTQSPSSLSASVGDRVTITCRASQTISSYLNWYQQKPGKAPKLLIYAASSLQSGVPSRFSGSGSGADFTLTISSLQPEDFATYYCQQSYTTFMYTFGQGTMLEIK"}}, "note": "Changes are numbered by the printed parent chain.", "data": [{"biological_target": "authentic SARS-CoV-2 (live virus)", "test": "cell-based or functional assay", "units": {"EC50 of neutralization of live virus in Vero-E6 cells": "µg/mL"}, "values": [{"binder": "B1", "EC50 of neutralization of live virus in Vero-E6 cells": 1.37}, {"binder": "B2", "EC50 of neutralization of live virus in Vero-E6 cells": 0.57}, {"binder": "B3", "EC50 of neutralization of live virus in Vero-E6 cells": 0.61}]}]}
